{"source": "patent US20240141039A1", "about": "(AGENUS, published 2024)", "key": {"[1]": {"molecular_target": "T1, full-length isoform 2 ECD of cynomolgus monkey CD96 (His-tagged) (cynomolgus monkey)", "T1 construct": "also called His-tagged isoform 2 of cynomolgus monkey CD96; cyno CD96 extracellular domain isoform 2", "T1 chain": "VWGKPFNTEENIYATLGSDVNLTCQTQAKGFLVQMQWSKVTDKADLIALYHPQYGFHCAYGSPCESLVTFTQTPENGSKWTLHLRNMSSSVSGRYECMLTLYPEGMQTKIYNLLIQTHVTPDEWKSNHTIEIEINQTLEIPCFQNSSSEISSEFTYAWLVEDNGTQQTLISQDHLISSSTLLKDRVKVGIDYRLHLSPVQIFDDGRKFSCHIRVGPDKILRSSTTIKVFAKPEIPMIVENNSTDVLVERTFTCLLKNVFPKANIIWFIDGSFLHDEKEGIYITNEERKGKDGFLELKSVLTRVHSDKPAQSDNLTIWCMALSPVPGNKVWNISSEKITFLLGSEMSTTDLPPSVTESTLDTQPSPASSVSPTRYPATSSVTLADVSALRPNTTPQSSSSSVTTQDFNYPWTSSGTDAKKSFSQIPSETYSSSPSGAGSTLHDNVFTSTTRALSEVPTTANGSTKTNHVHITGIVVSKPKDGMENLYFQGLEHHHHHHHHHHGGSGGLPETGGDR", "assay": "SPR Biacore T200, Protein A capture, 1:1 model, experiment #2", "description": "(§1) Briefly, surface plasmon resonance experiments were performed using a Biacore T200 instrument, and the association rate (kₐ), dissociation rate (kd), and dissociation constant (KD) were calculated from each experiment using a 1:1 binding model with Biacore T200 Evaluation Software.\n(§2) Multispecific molecules were captured using a 30-sec injection at a flow rate of 10 μl/min to reach about 350 resonance units (RUs). […] The sensor chip was regenerated between cycles with two 30-sec injections of 10 mM glycine, pH 1.5. Sensorgrams were evaluated and fit to a simple Langmuir 1:1 interaction model using the global data analysis option of BIAevaluation 3.0 software. Data quality was verified by visually inspecting deviations and curve fitting, and by evaluating the parameters of Rₘₐₓ, Chi2, and Tc."}, "[2]": {"molecular_target": "T2, full-length ECD of human TIGIT (His-tagged) (human)", "T2 construct": "also called His-tagged human TIGIT; human TIGIT extracellular domain", "T2 chain": "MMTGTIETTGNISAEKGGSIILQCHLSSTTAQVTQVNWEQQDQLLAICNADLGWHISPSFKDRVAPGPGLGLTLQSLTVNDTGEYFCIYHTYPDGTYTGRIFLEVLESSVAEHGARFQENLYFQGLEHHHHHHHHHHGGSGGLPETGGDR", "assay": "SPR Biacore T200, geomean of experiments #1 and #2", "description": "as §1\nas §2, with “1000” for “350”"}, "[3]": {"molecular_target": "T3, wild type full-length human TIGIT expressed on cells (human, UniProt Q495A1 22-244)", "T3 construct": "whole, on cells; also called human TIGIT-CHO; human TIGIT CHO cells", "T3 sequence (looked up)": "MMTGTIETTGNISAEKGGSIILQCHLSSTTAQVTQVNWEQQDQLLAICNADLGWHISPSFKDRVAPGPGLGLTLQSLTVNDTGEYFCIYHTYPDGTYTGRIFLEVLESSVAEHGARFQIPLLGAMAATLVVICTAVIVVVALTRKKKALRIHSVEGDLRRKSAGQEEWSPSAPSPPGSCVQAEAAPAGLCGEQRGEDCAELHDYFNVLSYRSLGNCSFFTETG", "assay": "flow cytometry, dual binding: CHO hu-TIGIT cells with antibody and soluble huCD96-His, Alexa Fluor 488 anti-His detection", "source_text": "Cells were centrifuged at 300 g for five minutes.\nAntibodies were serially diluted 1-to-3 in FACS buffer."}, "[4]": {"molecular_target": "T3, wild type full-length human TIGIT …", "assay": "flow cytometry on CHO cells expressing human TIGIT, PE anti-human IgG Fc detection", "description": "The ability of anti-TIGIT antibodies to bind to wild type human TIGIT expressed on the surface of CHO cells was assessed. Briefly, CHO cells were transfected with a vector encoding wild type human TIGIT (human TIGIT-CHO), and clones stably expressing TIGIT were selected.\nFor the antibody binding assay, a frozen aliquot of human TIGIT-CHO cells was thawed at 37° C. and then transferred to a tube containing DPBS supplemented with 0.5% Bovine Serum Albumin and 0.05% Sodium Azide (FACS Buffer). Cells were centrifuged at 300 g for five minutes. The supernatant was discarded, and cells resuspended in FACS buffer were seeded in a 96-well U-bottom tissue culture plate at a density of […] cells per well in 50 μL. In a separate microplate, a 2× concentrated intermediate stock of each antibody was prepared. Antibodies were serially diluted 1-to-4 in FACS buffer. A total of 11 working dilutions ranging from 60 μg/mL to 0.000057 μg/mL were prepared. […] After a 30-minute incubation on ice, the cells were washed twice with cold FACS Buffer, and the cells were analyzed by flow cytometry (BD LSR Fortessa Flow Cytometer). The data were analyzed using the FlowJo software by sequentially gating the FSC-A vs. SSC-A, and SSC-H vs. SSC-A. Mean fluorescence intensity (MFI) values for PE were calculated, and the data were plotted by GraphPad Prism software."}}, "data": [{"binder": "anti-TIGIT×CD96 multispecific molecule BA123 (bispecific antibody, human IgG1, kappa, lambda, copies: 1 + 1 + 1 + 1) heavy 1: QVQLVQSGAEVKKPGASVKVSCKASGYTFTSYGISWVRQAPGQGLEWMGWISAYNANTNYAQKLQGRVTMTTDTSTSTAYMELRSLRSDDTAVYYCARSAGVLGGMDVWGRGTLVTVSSASTKGPSVFPLAPSSKSTSGGTAALGCLVKDYFPEPVTVSWNSGALTSGVHTFPAVLQSSGLYSLSSVVTVPSSSLGTQTYICNVNHKPSNTKVDKRVEPKSCDKTHTCPPCPAPELLGGPDVFLFPPKPKDTLMISRTPEVTCVVVDVSHEDPEVKFNWYVDGVEVHNAKTKPREEQYNSTYRVVSVLTVLHQDWLNGKEYKCKVSNKALPAPIEKTISKAKGQPREPQVYTLPPSREEMTKNQVSLSCAVKGFYPSDIAVEWESNGQPENNYKTTPPVLDSDGSFFLVSKLTVDKSRWQQGNVFSCSVMHEALHNHYTQKSLSLSPG light 1: not shown heavy 2: EVQLVQSGAEVKKPGSSVKVSCKASGYTFASYGISWVRQAPGQGLEWMGGITPFFNRVDVAEKFQGRVTITADKSTSTAYIELSSLRSEDTAVYYCARDLRRGGVGDAFDIWGRGTLVTVSSASTKGPSVFPLAPSSKSTSGGTAALGCLVKDYFPEPVTVSWNSGALTSGVHTFPAVLQSSGLYSLSSVVTVPSSSLGTQTYICNVNHKPSNTKVDKRVEPKSCDKTHTCPPCPAPELLGGPDVFLFPPKPKDTLMISRTPEVTCVVVDVSHEDPEVKFNWYVDGVEVHNAKTKPREEQYNSTYRVVSVLTVLHQDWLNGKEYKCKVSNKALPLPEEKTISKAKGQPREPQVYTLPPSREEMTKNQVSLWCLVKGFYPSDIAVEWESNGQPENNYKTTPPVLDSDGSFFLYSKLTVDKSRWQQGNVFSCSVMHEALHNHYTQKSLSLSPG light 2: QSALTQPRSVSGSPGQSVTISCTGTSPDVGSHAYRSWYQQHPGKAPKLMIYEVSYRPSGVSNRFSGSKSGNTASLTISGLQAEDEADYYCSSYPPSSATVFGAGTKLTVLGQPKAAPSVTLFPPSSEELQANKATLVCLISDFYPGAVTVAWKADSSPVKAGVETTTPSKQSNNKYAASSYLSLTPEQWKSHRSYSCQVTHEGSTVEKTVAPTEC", "values": [{"measurement": "Kd", "setting": "[1]", "value": 42.7, "unit": "nM"}, {"measurement": "koff", "setting": "[1]", "value": 0.00324, "unit": "s⁻¹"}, {"measurement": "kon", "setting": "[1]", "value": 75900, "unit": "M⁻¹ s⁻¹"}]}, {"binder": "anti-TIGIT×CD96 multispecific molecule BA127 (bispecific antibody, human IgG1, kappa, lambda, Anti-CD96 arm = BA139, anti-TIGIT arm = BA150; copies: 1 + 1 + 1 + 1) heavy 1: QVQLVQSGAEVKKPGASVKVSCKASGYTFTTYALHWVRQAPGQRLEWMGWINTGSGDTKYSQKFQGRVTITRDTSASTAYMELSSLRSEDTAVYYCARSLGVYYGMDVWGQGTLVTVSSASTKGPSVFPLAPSSKSTSGGTAALGCLVKDYFPEPVTVSWNSGALTSGVHTFPAVLQSSGLYSLSSVVTVPSSSLGTQTYICNVNHKPSNTKVDKRVEPKSCDKTHTCPPCPAPELLGGPDVFLFPPKPKDTLMISRTPEVTCVVVDVSHEDPEVKFNWYVDGVEVHNAKTKPREEQYNSTYRVVSVLTVLHQDWLNGKEYKCKVSNKALPAPIEKTISKAKGQPREPQVYTLPPSREEMTKNQVSLSCAVKGFYPSDIAVEWESNGQPENNYKTTPPVLDSDGSFFLVSKLTVDKSRWQQGNVFSCSVMHEALHNHYTQKSLSLSPG light 1: not shown heavy 2: EVQLVQSGAEVKKPGSSVKVSCKASGYTFASYGISWVRQAPGQGLEWMGGITPFFNRVDVAEKFQGRVTITADKSTSTAYIELSSLRSEDTAVYYCARDLRRGGVGDAFDIWGRGTLVTVSSASTKGPSVFPLAPSSKSTSGGTAALGCLVKDYFPEPVTVSWNSGALTSGVHTFPAVLQSSGLYSLSSVVTVPSSSLGTQTYICNVNHKPSNTKVDKRVEPKSCDKTHTCPPCPAPELLGGPDVFLFPPKPKDTLMISRTPEVTCVVVDVSHEDPEVKFNWYVDGVEVHNAKTKPREEQYNSTYRVVSVLTVLHQDWLNGKEYKCKVSNKALPLPEEKTISKAKGQPREPQVYTLPPSREEMTKNQVSLWCLVKGFYPSDIAVEWESNGQPENNYKTTPPVLDSDGSFFLYSKLTVDKSRWQQGNVFSCSVMHEALHNHYTQKSLSLSPG light 2: QSALTQPRSVSGSPGQSVTISCTGTSPDVGSHAYRSWYQQHPGKAPKLMIYEVSYRPSGVSNRFSGSKSGNTASLTISGLQAEDEADYYCSSYPPSSATVFGAGTKLTVLGQPKAAPSVTLFPPSSEELQANKATLVCLISDFYPGAVTVAWKADSSPVKAGVETTTPSKQSNNKYAASSYLSLTPEQWKSHRSYSCQVTHEGSTVEKTVAPTEC", "values": [{"measurement": "Kd", "setting": "[2]", "value": 0.59, "unit": "nM"}, {"measurement": "EC50 (read off the curve)", "setting": "[3]", "value": "~0.3", "unit": "µg/mL"}]}, {"binder": "anti-TIGIT monospecific antibody BA148 (antibody, human IgG1, lambda, IgG1; also called anti-TIGIT IgG1 antibody BA148) heavy: EVQLVQSGAEVKKPGSSVKVSCKASGYTFASYGISWVRQAPGQGLEWMGGITPFFNRVDVAEKFQGRVTITADKSTSTAYIELSSLRSEDTAVYYCARDLRRGGVGDAFDIWGRGTLVTVSSASTKGPSVFPLAPSSKSTSGGTAALGCLVKDYFPEPVTVSWNSGALTSGVHTFPAVLQSSGLYSLSSVVTVPSSSLGTQTYICNVNHKPSNTKVDKRVEPKSCDKTHTCPPCPAPELLGGPDVFLFPPKPKDTLMISRTPEVTCVVVDVSHEDPEVKFNWYVDGVEVHNAKTKPREEQYNSTYRVVSVLTVLHQDWLNGKEYKCKVSNKALPLPEEKTISKAKGQPREPQVYTLPPSREEMTKNQVSLTCLVKGFYPSDIAVEWESNGQPENNYKTTPPVLDSDGSFFLYSKLTVDKSRWQQGNVFSCSVMHEALHNHYTQKSLSLSPGK light: QSALTQPRSVSGSPGQSVTISCTGTSPDVGSHAYRSWYQQHPGKAPKLMIYEVSYRPSGVSNRFSGSKSGNTASLTISGLQAEDEADYYCSSYPPSSATVFGAGTKLTVLGQPKAAPSVTLFPPSSEELQANKATLVCLISDFYPGAVTVAWKADSSPVKAGVETTTPSKQSNNKYAASSYLSLTPEQWKSHRSYSCQVTHEGSTVEKTVAPTEC", "values": [{"measurement": "EC50 (read off the curve)", "setting": "[4]", "value": "~8", "unit": "ng/mL"}]}]}
